In the supplement of paper PMC5998384:

Tests used:
HeLa Kyoto [1] = assay: solubility in G1/S (NP-40 vs SDS abundance) (log2 ratio); higher = more soluble; settings: cell cycle stage: G1/S
HeLa Kyoto [2] = assay: solubility change mitosis vs G1/S (difference of NP-40 vs SDS log2 ratios) (log2 ratio difference); higher = more soluble in mitosis
HeLa Kyoto [3] = assay: thermal stability score vs G1/S (z-score of summed log2 fold changes over temperatures); higher = more thermally stable than in G1/S
HeLa Kyoto [4] = assay: melting temperature (median over replicates), in situ; higher = more thermally stable; settings: cell cycle stage: mitosis
[5] = cell cycle stage: early G1 (4.5 h after nocodazole release)
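Throughout, for melting temperature (median over replicates), in situ: HeLa Kyoto cells synchronized by double thymidine or nocodazole block, proteins quantified by TMT10plex mass spectrometry, three independent biological replicates.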
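Throughout, for solubility change mitosis vs G1/S (difference of NP-40 vs SDS log2 ratios): synchronized HeLa Kyoto cells (double thymidine block for G1/S, nocodazole release for mitosis), protein amounts in NP-40 versus SDS lysates quantified by mass spectrometry, three biological replicates.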
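Throughout, for solubility in G1/S (NP-40 vs SDS abundance): HeLa Kyoto cells arrested at G1/S by double thymidine block, proteins quantified by TMT10plex mass spectrometry in mild NP-40 versus SDS extracts, three biological replicates.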
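Throughout, for thermal stability score vs G1/S (z-score of summed log2 fold changes over temperatures): synchronized HeLa Kyoto cells, proteins quantified by TMT10plex mass spectrometry, three biological replicates, mitosis taken 0.5 h after nocodazole release, G1/S directly after double thymidine block.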

ERGIC3, sequence (chain, as listed by the source): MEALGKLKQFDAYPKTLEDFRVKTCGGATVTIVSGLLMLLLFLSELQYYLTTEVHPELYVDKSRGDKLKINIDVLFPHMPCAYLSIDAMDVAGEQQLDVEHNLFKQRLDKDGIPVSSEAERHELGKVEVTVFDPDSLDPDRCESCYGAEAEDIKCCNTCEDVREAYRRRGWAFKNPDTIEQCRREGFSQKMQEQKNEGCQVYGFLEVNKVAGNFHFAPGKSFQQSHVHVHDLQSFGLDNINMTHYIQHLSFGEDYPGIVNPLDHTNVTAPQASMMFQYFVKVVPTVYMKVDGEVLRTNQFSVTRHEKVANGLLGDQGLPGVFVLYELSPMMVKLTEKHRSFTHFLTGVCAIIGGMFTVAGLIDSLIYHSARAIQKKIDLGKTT

Substance	solubility in G1/S (log2) (HeLa Kyoto [1])	solubility change mitosis (log2) (HeLa Kyoto [2])	also measured
MDIIETAKLEEHLENQPSDPTNTYARPAEPVEEENKNGNGKPKSLSSGLRKGTKKYPDYIQIAMPTESRNKFPLEWWKTGIAFIYAVFNLVLTTVMITVVHERVPPKELSPPLPDKFFDYIDRVKWAFSVSEINGIILVGLWITQWLFLRYKSIVGRRFCFIIGTLYLYRCITMYVTTLPVPGMHFQCAPKLNGDSQAKVQRILRLISGGGLSITGSHILCGDFLFSGHTVTLTLTYLFIKEYSPRHFWWYHLICWLLSAAGIICILVAHEHYTIDVIIAYYITTRLFWWYHSMANEKNLKVSSQTNFLSRAWWFPIFYFFEKNVQGSIPCCFSWPLSWPPGCFKSSCKKYSRVQKIGEDNEKST [SGMS2]	-0.197	-0.0915	–
MSGGGTETPVGCEAAPGGGSKKRDSLGTAGSAHLIIKDLGEIHSRLLDHRPVIQGETRYFVKEFEEKRGLREMRVLENLKNMIHETNEHTLPKCRDTMRDSLSQVLQRLQAANDSVCRLQQREQERKKIHSDHLVASEKQHMLQWDNFMKEQPNKRAEVDEEHRKAMERLKEQYAEMEKDLAKFSTF [BLOC1S5]	0.438	-0.0624	–
MFYAHFVLSKRGPLAKIWLAAHWDKKLTKAHVFECNLESSVESIISPKVKMALRTSGHLLLGVVRIYHRKAKYLLADCNEAFIKIKMAFRPGVVDLPEENREAAYNAITLPEEFHDFDQPLPDLDDIDVAQQFSLNQSRVEEITMREEVGNISILQENDFGDFGMDDREIMREGSAFEDDDMLVSTTTSNLLLESEQSTSNLNEKINHLEYEDQYKDDNFGEGNDGGILDDKLISNNDGGIFDDPPALSEAGVMLPEQPAHDDMDEDDNVSMGGPDSPDSVDPVEPMPTMTDQTTLVPNEEEAFALEPIDITVKETKAKRKRKLIVDSVKELDSKTIRAQLSDYSDIVTTLDLAPPTKKLMMWKETGGVEKLFSLPAQPLWNNRLLKLFTRCLTPLVPEDLRKRRKGGEADNLDEFLKEFENPEVPREDQQQQHQQRDVIDEPIIEEPSRLQESVMEASRTNIDESAMPPPPPQGVKRKAGQIDPEPVMPPQQVEQMEIPPVELPPEEPPNICQLIPELELLPEKEKEKEKEKEDDEEEEDEDASGGDQDQEERRWNKRTQQMLHGLQRALAKTGAESISLLELCRNTNRKQAAAKFYSFLVLKKQQAIELTQEEPYSDIIATPGPRFHII [RAD21]	–	-0.0219	thermal stability score (HeLa Kyoto [3]; [5]): -1.05; thermal stability score (HeLa Kyoto [3]; cell cycle stage: mitosis): -1.37
MEKPRSIEETPSSEPMEEEEDDDLELFGGYDSFRSYNSSVGSESSSYLEESSEAENEDREAGELPTSPLHLLSPGTPRSLDGSGSEPAVCEMCGIVGTREAFFSKTKRFCSVSCSRSYSSNSKKASILARLQGKPPTKKAKVLHKAAWSAKIGAFLHSQGTGQLADGTPTGQDALVLGFDWGKFLKDHSYKAAPVSCFKHVPLYDQWEDVMKGMKVEVLNSDAVLPSRVYWIASVIQTAGYRVLLRYEGFENDASHDFWCNLGTVDVHPIGWCAINSKILVPPRTIHAKFTDWKGYLMKRLVGSRTLPVDFHIKMVESMKYPFRQGMRLEVVDKSQVSRTRMAVVDTVIGGRLRLLYEDGDSDDDFWCHMWSPLIHPVGWSRRVGHGIKMSERRSDMAHHPTFRKIYCDAVPYLFKKVRAVYTEGGWFEEGMKLEAIDPLNLGNICVATVCKVLLDGYLMICVDGGPSTDGLDWFCYHASSHAIFPATFCQKNDIELTPPKGYEAQTFNWENYLEKTKSKAAPSRLFNMDCPNHGFKVGMKLEAVDLMEPRLICVATVKRVVHRLLSIHFDGWDSEYDQWVDCESPDIYPVGWCELTGYQLQPPVAAEPATPLKAKEATKKKKKQFGKKRKRIPPTKTRPLRQGSKKPLLEDDPQGARKISSEPVPGEIIAVRVKEEHLDVASPDKASSPELPVSVENIKQETDD [L3MBTL2]	-0.293	0.0658	–
MEGRSAAAETFVWVNNASAHSQSVAKAKYEFLFGRSEGKAPDTSDHGGSTLLPPNVTNEFPEYGTMEEGGEGLRASLEFDGEALPCHPQEQQGVQPLTGCHSGLDSVTEGPKDVREAPSQSHLKEQSLQPIDSLISALKATEARIISGTLQATKVLDQDAVSSFSVQQVEKELDTASRKTQRVNKTLPAGQKNLPEIPLSAEVTTEESFYLSIQKDLTALLTGDTQAEISQIMNNGRKGAVCVQEPSCPLASLGSSAVTCHSAGSVGFLKEQRSALGREHPGGCDRSSSMGRPGRVKHVEFQGVEILWTGGDKRETQHPIDFETSLQRTASPDSKESSKVPRHLISSAGLCNSSSLTENVWDESWKAPSERPGTSSGTFSPVRLDESGEDEVFLQENKQHLEKTPKPERDRERISEQEEHVKGEDEDILGPGYTEDSTDVYSSQFETILDNTSLYYSAESLETLYSEPDSYFSFEMPLTPMIQQRIKEGGQFLERTSGGGHQDILSVSADGGIVMGYSSGVTNGLNDASDSIYTKGTPEIAFWGSNAGVKTTRLEAHSEMGSTEILEKETPENLSNGTSSNVEAAKRLAKRLYQLDRFKRSDVAKHLGKNNEFSKLVAEEYLKFFDFTGMTLDQSLRYFFKAFSLVGETQERERVLIHFSNRYFYCNPDTIASQDGVHCLTCAIMLLNTDLHGHVNIGKKMTCQEFIANLQGVNEGVDFSKDLLKALYNSIKNEKLEWAVDDEEKKKSPSESTEEKANGTHPKTISRIGSTTNPFLDIPHDPNAAVYKSGFLARKIHADMDGKKTPRGKRGWKTFYAVLKGTVLYLQKDEYKPEKALSEEDLKNAVSVHHALASKATDYEKKPNVFKLKTADWRVLLFQTQSPEEMQGWINKINCVAAVFSAPPFPAAIGSQKKFSRPLLPATTTKLSQEEQLKSHESKLKQITTELAEHRSYPPDKKVKAKDVDEYKLKDHYLEFEKTRYEMYVSILKEGGKELLSNDESEAAGLKKSHSSPSLNPDTSPITAKVKRNVSERKDHRPETPSIKQKVT [PSD3]	-0.107	-0.00479	–
MTYAYLFKYIIIGDTGVGKSCLLLQFTDKRFQPVHDLTIGVEFGARMVNIDGKQIKLQIWDTAGQESFRSITRSYYRGAAGALLVYDITRRETFNHLTSWLEDARQHSSSNMVIMLIGNKSDLESRRDVKREEGEAFAREHGLIFMETSAKTACNVEEAFINTAKEIYRKIQQGLFDVHNEANGIKIGPQQSISTSVGPSASQRNSRDIGSNSGCC [RAB2B]	-0.221	-0.115	–
MNGTRNWCTLVDVHPEDQAAGSVDILRLTLQGELTGDELEHIAQKAGRKTYAMVSSHSAGHSLASELVESHDGHEEIIKVYLKGRSGDKMIHEKNINQLKSEVQYIQEARNCLQKLREDISSKLDRNLGDSLHRQEIQVVLEKPNGFSQSPTALYSSPPEVDTCINEDVESLRKTVQDLLAKLQEAKRQHQSDCVAFEVTLSRYQREAEQSNVALQREEDRVEQKEAEVGELQRRLLGMETEHQALLAKVREGEVALEELRSNNADCQAEREKAATLEKEVAGLREKIHHLDDMLKSQQRKVRQMIEQLQNSKAVIQSKDATIQELKEKIAYLEAENLEMHDRMEHLIEKQISHGNFSTQARAKTENPGSIRISKPPSPKPMPVIRVVET [TUFT1]	0.415	0.112	–
MFSWMGRQAGGRERAGGADAVQTVTGGLRSLYLRKVLPLEEAYRFHEFHSPALEDADFENKPMILLVGQYSTGKTTFIRYLLEQDFPGMRIGPEPTTDSFIAVMYGETEGSTPGNALVVDPKKPFRKLSRFGNAFLNRFMCSQLPNQVLKSISVIDSPGILSGEKQRISRGYDFCQVLQWFAERVDRIILLFDAHKLDISDEFSEAIKAFRGQDDKIRVVLNKADQVDTQQLMRVYGALMWSLGKVINTPEVLRVYIGSFWAQPLQNTDNRRLFEAEAQDLFRDIQSLPQKAAVRKLNDLIKRARLAKVHAYIISYLKKEMPSVFGKENKKRELISRLPEIYIQLQREYQISAGDFPEVKAMQEQLENYDFTKFHSLKPKLIEAVDNMLSNKISPLMNLISQEETSTPTQLVQGGAFDGTTEGPFNQGYGEGAKEGADEEEWVVAKDKPVYDELFYTLSPINGKISGVNAKKEMVTSKLPNSVLGKIWKLADCDCDGMLDEEEFALAKHLIKIKLDGYELPSSLPPHLVPPSHRKSLPKAD [EHD4]	0.226	–	melting temperature (HeLa Kyoto [4]): 50.4 °C
ERGIC3	–	-0.0891	thermal stability score (HeLa Kyoto [3]; [5]): -2.7; thermal stability score (HeLa Kyoto [3]; cell cycle stage: mitosis): -7.02
MAASSSGEKEKERLGGGLGVAGGNSTRERLLSALEDLEVLSRELIEMLAISRNQKLLQAGEENQVLELLIHRDGEFQELMKLALNQGKIHHEMQVLEKEVEKRDSDIQQLQKQLKEAEQILATAVYQAKEKLKSIEKARKGAISSEEIIKYAHRISASNAVCAPLTWVPGDPRRPYPTDLEMRSGLLGQMNNPSTNGVNGHLPGDALAAGRLPDVLAPQYPWQSNDMSMNMLPPNHSSDFLLEPPGHNKENEDDVEIMSTDSSSSSSESD [MED4]	–	-0.0345	thermal stability score (HeLa Kyoto [3]; [5]): -1.56; thermal stability score (HeLa Kyoto [3]; cell cycle stage: mitosis): -1.18
MSALEKSMHLGRLPSRPPLPGSGGSQSGAKMRMGPGRKRDFSPVPWSQYFESMEDVEVENETGKDTFRVYKSGSEGPVLLLLHGGGHSALSWAVFTAAIISRVQCRIVALDLRSHGETKVKNPEDLSAETMAKDVGNVVEAMYGDLPPPIMLIGHSMGGAIAVHTASSNLVPSLLGLCMIDVVEGTAMDALNSMQNFLRGRPKTFKSLENAIEWSVKSGQIRNLESARVSMVGQVKQCEGITSPEGSKSIVEGIIEEEEEDEEGSESISKRKKEDDMETKKDHPYTWRIELAKTEKYWDGWFRGLSNLFLSCPIPKLLLLAGVDRLDKDLTIGQMQGKFQMQVLPQCGHAVHEDAPDKVAEAVATFLIRHRFAEPIGGFQCVFPGC [PPME1]	–	0.0133	thermal stability score (HeLa Kyoto [3]; [5]): -0.13; thermal stability score (HeLa Kyoto [3]; cell cycle stage: mitosis): -0.609
MRPL49	–	0.257	–
MRPL55	–	0.249	–
TTR	–	0.336	–
WDR61	–	-0.0946	–
PRG4	–	0.251	–
RPS24	–	0.772	–
HAGH	–	0.0733	–
MRPS26	–	0.0692	–
RPS20	–	0.612	–
RPS26	–	0.618	–
MPGIDKLPIEETLEDSPQTRSLLGVFEEDATAISNYMNQLYQAMHRIYDAQNELSAATHLTSKLLKEYEKQRFPLGGDDEVMSSTLQQFSKVIDELSSCHAVLSTQLADAMMFPITQFKERDLKEILTLKEVFQIASNDHDAAINRYSRLSKKRENDKVKYEVTEDVYTSRKKQHQTMMHYFCALNTLQYKKKIALLEPLLGYMQAQISFFKMGSENLNEQLEEFLANIGTSVQNVRREMDSDIETMQQTIEDLEVASDPLYVPDPDPTKFPVNRNLTRKAGYLNARNKTGLVSSTWDRQFYFTQGGNLMSQARGDVAGGLAMDIDNCSVMAVDCEDRRYCFQITSFDGKKSSILQAESKKDHEEWICTINNISKQIYLSENPEETAARVNQSALEAVTPSPSFQQRHESLRPAAGQSRPPTARTSSSGSLGSESTNLAALSLDSLVAPDTPIQFDIISPVCEDQPGQAKAFGQGGRRTNPFGESGGSTKSETEDSILHQLFIVRFLGSMEVKSDDHPDVVYETMRQILAARAIHNIFRMTESHLLVTCDCLKLIDPQTQVTRLTFPLPCVVLYATHQENKRLFGFVLRTSSGRSESNLSSVCYIFESNNEGEKICDSVGLAKQIALHAELDRRASEKQKEIERVKEKQQKELNKQKQIEKDLEEQSRLIAASSRPNQASSEGQFVVLSSSQSEESDLGEGGKKRESEA [APPL1]	0.05	–	melting temperature (HeLa Kyoto [4]): 50.4 °C
